Where a chain is given by its changes, count along the chain named. In names and notes the source's numbering stands.
T1: extracellular domain of human BCMA (human, UniProt Q02223 1-54)
T1 construct: amine-linked to Octet AR2G tips; also called hsBCMA; BCMA (human)
T1 sequence: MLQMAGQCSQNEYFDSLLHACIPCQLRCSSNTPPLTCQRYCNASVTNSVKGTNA

B1: AB200_Fab (D99D) (Fab, V domains shown)
VH: QVQLVQSGAEVKKPGSSVKVSCKASGGTFSNYWMHWVRQAPGQGLEWMGATYRGHSDTYYNQKFKGRVTITADKSTSTAYMELSSLRSEDTAVYYCARGAIYDGYDVLDNWGQGTLVTVSS
VL: DIQMTQSPSSLSASVGDRVTITCSASQDISNYLNWYQQKPGKAPKLLIYYTSNLHSGVPSRFSGSGSGTDFTLTISSLQPEDFATYYCQQYRKLPWTFGQGTKLEIKR
B2: AB200_Fab + D99S (Fab, name in Kabat numbering, V domains shown)
VH: B1 VH with D103S
VL: B1 VL
B3: AB200_Fab + D99Q (Fab, name in Kabat numbering, V domains shown)
VH: B1 VH with D103Q
VL: B1 VL
B4: AB200_Fab + D99E (Fab, name in Kabat numbering, V domains shown)
VH: B1 VH with D103E
VL: B1 VL
B5: AB200_Fab + D99N (Fab, name in Kabat numbering, V domains shown)
VH: B1 VH with D103N
VL: B1 VL
notes: also called D99N variant
B6: AB200_Fab + D99T (Fab, name in Kabat numbering, V domains shown)
VH: B1 VH with D103T
VL: B1 VL
B7: AB200-R1a-Fab_Vk10 (Fab, V domains shown)
VH: B1 VH with D103H
VL: B1 VL with D28S, Y91S, L94M
B8: AB200-R1a-Fab_Vk8 (Fab, V domains shown)
VH: B1 VH with D103H
VL: B1 VL with H55Q, Q89H, Y91S
B9: AB200-R1a-Fab_Vk12 (Fab, V domains shown)
VH: B1 VH with D103H
VL: B1 VL with T51A, S52T, K93R
B10: AB200-R1a-Fab_Vk16 (Fab, V domains shown)
VH: B1 VH with D103H
VL: B1 VL with S30T, Y50A, Q90E
B11: AB200-R1a-Fab_Vk9 (Fab, V domains shown)
VH: B1 VH with D103H
VL: B1 VL with D28E, Y50A, T97S
B12: AB200-R1a-Fab_Vk35 (Fab, V domains shown)
VH: B1 VH with D103H
VL: B1 VL with I29L, R92K, L94I
B13: AB200-R1a-Fab_Vk15 (Fab, V domains shown)
VH: B1 VH with D103H
VL: B1 VL with Q27H, D28E, N53S
B14: AB200-R1a-Fab_Vk30 (Fab, V domains shown)
VH: B1 VH with D103H
VL: B1 VL with S24T, D28S, L33I
B15: AB200-R1a-Fab_Vk25 (Fab, V domains shown)
VH: B1 VH with D103H
VL: B1 VL with Y50A, T51A, L94I
B16: AB200-R1a-Fab_Vk33 (Fab, V domains shown)
VH: B1 VH with D103H
VL: B1 VL with N31S, Y50F, Y91S
B17: AB200-R1a-Fab_Vk2 (Fab, V domains shown)
VH: B1 VH with D103H
VL: B1 VL with D28E, I29V, Q90E
B18: AB200-(2Vk31)_R2-CDR2-hs-v1 (Fab, V domains shown)
VH: QVQLVQSGAEVKKPGSSVKVSCKASGGTFTNYWIHWVRQAPGQGLEWMGGIIPIFGTANYAQKFQGRVTITADKSTSTAYMELSSLRSEDTAVYYCARGAIFHGYDVIDNWGQGTLVTVSS
VL: B1 VL with S24R, D28S, N31S, Y50A, H55Q, S56I, Y91F, K93R
B19: AB200-(2Vk31)_R2-CDR2-hs-v3 (Fab, V domains shown)
VH: B18 VH with I101V, F102Y
VL: B1 VL with S24R, D28S, N31S, Y50A, H55Q, S56I, Y91F, K93R
B20: AB200-(2Vk31)_R2-VH-v29 (Fab, V domains shown)
VH: B1 VH with M34I, G54S, D57T, Q62E, G66S, D103H, Y105F, L108I
VL: B1 VL with S24R, D28S, N31S, Y50A, H55Q, S56I, Y91F, K93R
B21: AB200-(2Vk31)_R2-VH-v25 (Fab, V domains shown)
VH: B1 VH with M34I, G54S, D57T, Y59N, G66S, D103H, Y105F, L108I
VL: B1 VL with S24R, D28S, N31S, Y50A, H55Q, S56I, Y91F, K93R
B22: AB200-(2Vk31)_R2-VH-v66 (Fab, V domains shown)
VH: B1 VH with M34I, G54I, D57T, F64Y, G66S, Y102F, D103H, L108I
VL: B1 VL with S24R, D28S, N31S, Y50A, H55Q, S56I, Y91F, K93R
B23: AB200-(2Vk31)_R2-VH-v50 (Fab, V domains shown)
VH: B1 VH with F29Y, M34I, A50G, G54I, Y59N, G66S, D103H, L108I, D109E
VL: B1 VL with S24R, D28S, N31S, Y50A, H55Q, S56I, Y91F, K93R
B24: AB200-(2Vk31)_R2-VH-v47 (Fab, V domains shown)
VH: B1 VH with F29Y, M34I, G54I, D57T, Q62E, G66S, Y102F, D103H, L108I
VL: B1 VL with S24R, D28S, N31S, Y50A, H55Q, S56I, Y91F, K93R
B25: AB200-(2Vk31)_R2-VH-v73 (Fab, V domains shown)
VH: B1 VH with M34I, G54I, N61A, F64Y, G66S, I101V, D103H, L108I
VL: B1 VL with S24R, D28S, N31S, Y50A, H55Q, S56I, Y91F, K93R
B26: AB200-(2Vk31)_R2-VH-v57 (Fab, V domains shown)
VH: B1 VH with M34I, A50G, G54I, D57T, G66S, K74E, I101V, D103H, L108I
VL: B1 VL with S24R, D28S, N31S, Y50A, H55Q, S56I, Y91F, K93R
B27: AB200-(2Vk31)_R2-VH-v17 (Fab, V domains shown)
VH: B1 VH with T28S, M34I, G54S, H55Q, N61A, G66S, Y102F, D103H, L108I
VL: B1 VL with S24R, D28S, N31S, Y50A, H55Q, S56I, Y91F, K93R
B28: AB200-(2Vk31)_R2-VH-v5 (Fab, V domains shown)
VH: B1 VH with S30T, M34I, A50G, G54S, Q62E, G66S, Y102F, D103H, L108I
VL: B1 VL with S24R, D28S, N31S, Y50A, H55Q, S56I, Y91F, K93R
B29: AB200-(2Vk31)_R2-VH-v18 (Fab, V domains shown)
VH: B1 VH with T28S, M34I, G54S, N61A, Q62E, G66S, I101V, D103H, L108I
VL: B1 VL with S24R, D28S, N31S, Y50A, H55Q, S56I, Y91F, K93R
B30: AB200-(2Vk31)_R2-CDR1-hs-v3 (Fab, V domains shown)
VH: QVQLVQSGAEVKKPGSSVKVSCKASGGTFSSYAISWVRQAPGQGLEWMGATYRSQSDTYYNQKYKSRVTITADKSTSTAYMELSSLRSEDTAVYYCARGAVYHGYDVIDNWGQGTLVTVSS
VL: B1 VL with S24R, D28S, N31S, Y50A, H55Q, S56I, Y91F, K93R
B31: AB200-(2Vk31)_R2-VH-v33 (Fab, V domains shown)
VH: B1 VH with M34I, G54S, Y59N, Q62E, G66S, D103H, L108I, D109E
VL: B1 VL with S24R, D28S, N31S, Y50A, H55Q, S56I, Y91F, K93R
B32: AB200-(2Vk31)_R2-VH-v21 (Fab, V domains shown)
VH: B1 VH with M34I, A50G, G54S, N61A, G66S, Y102F, D103H, L108I
VL: B1 VL with S24R, D28S, N31S, Y50A, H55Q, S56I, Y91F, K93R
B33: AB200-(2Vk31)_R2-VH-v12 (Fab, V domains shown)
VH: B30 VH with F29Y, S31N, A33W, S35H, Q55H, D57T, V101I, Y105F
VL: B1 VL with S24R, D28S, N31S, Y50A, H55Q, S56I, Y91F, K93R
B34: AB200-(2Vk31)_R2-VH-v2 (Fab, V domains shown)
VH: B30 VH with S30T, S31N, A33W, S35H, Q55H, D57T, Y59N, Y64F
VL: B1 VL with S24R, D28S, N31S, Y50A, H55Q, S56I, Y91F, K93R
B35: AB200-(2Vk31)_R2-VH-v34 (Fab, V domains shown)
VH: B30 VH with S31N, A33W, S35H, N61A, Y64F, V101I, D109E
VL: B1 VL with S24R, D28S, N31S, Y50A, H55Q, S56I, Y91F, K93R
B36: AB200-(2Vk31)_R2-VH-v42 (Fab, V domains shown)
VH: B1 VH with S30T, M34I, A50G, G54I, F64Y, G66S, Y102F, D103H, L108I
VL: B1 VL with S24R, D28S, N31S, Y50A, H55Q, S56I, Y91F, K93R

molecular target: T1, extracellular domain of human BCMA; assay: Octet BLI; Fab 200 nM

Row | Binder | Kd | koff | kon
1 | B1 | 3.45 nM | 0.00058 s⁻¹ | 170000 M⁻¹ s⁻¹
2 | B2 | 3.86 nM | 0.00044 s⁻¹ | 110000 M⁻¹ s⁻¹
3 | B3 | 3.06 nM | 0.00053 s⁻¹ | 170000 M⁻¹ s⁻¹
4 | B4 | 5.92 nM | 0.00091 s⁻¹ | 150000 M⁻¹ s⁻¹
5 | B5 | 1.23 nM | 0.00023 s⁻¹ | 190000 M⁻¹ s⁻¹
6 | B6 | 3.72 nM | 0.0003 s⁻¹ | 80000 M⁻¹ s⁻¹

molecular target: T2, extracellular domain of rhesus monkey BCMA (rhesus monkey, UniProt F7FFA0 1-53); assay: Octet BLI; Fab 200 nM
T2 construct: extracellular domain; also called RhBCMA
T2 sequence (F7FFA0 entry or part of it): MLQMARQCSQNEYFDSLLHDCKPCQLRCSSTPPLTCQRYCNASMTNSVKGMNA

Row | Binder | Kd | koff | kon
7 | B1 | 5.89 nM | 0.00118 s⁻¹ | 200000 M⁻¹ s⁻¹
8 | B2 | 9.75 nM | 0.00114 s⁻¹ | 120000 M⁻¹ s⁻¹
9 | B3 | 7.63 nM | 0.0014 s⁻¹ | 180000 M⁻¹ s⁻¹
10 | B4 | 13.6 nM | 0.00219 s⁻¹ | 160000 M⁻¹ s⁻¹
11 | B5 | 3.32 nM | 0.00066 s⁻¹ | 200000 M⁻¹ s⁻¹
12 | B6 | 11.5 nM | 0.00099 s⁻¹ | 90000 M⁻¹ s⁻¹

molecular target: T1, extracellular domain of human BCMA; assay: Octet BLI; Fab 200 nM; remark: another data set of the same source

Row | Binder | Kd
13 | B7 | 110 nM
14 | B8 | 24.1 nM
15 | B9 | 4.89 nM
16 | B10 | 3.18 nM
17 | B11 | 2.04 nM
18 | B12 | 7.3 nM
19 | B13 | 2.93 nM
20 | B14 | 1.56 nM
21 | B15 | 3.44 nM
22 | B16 | 19.5 nM
23 | B17 | 4.27 nM

molecular target: T2, extracellular domain of rhesus monkey …; assay: Octet BLI; Fab 200 nM; remark: another data set of the same source

Row | Binder | Kd
24 | B7 | 195 nM
25 | B8 | 42.1 nM
26 | B9 | 16.8 nM
27 | B10 | 12.9 nM
28 | B11 | 8.03 nM
29 | B12 | 18.9 nM
30 | B13 | 9.71 nM
31 | B14 | 4.78 nM
32 | B15 | 13.6 nM
33 | B16 | 37.4 nM
34 | B17 | 14.9 nM

molecular target: T1, extracellular domain of human BCMA; assay: Octet BLI; Fab 200 nM; remark: another data set of the same source

Row | Binder | Kd
35 | B18 | 241 nM
36 | B19 | 126 nM
37 | B20 | 6.02 nM
38 | B21 | 32.8 nM
39 | B22 | 13.7 nM
40 | B23 | 90 nM
41 | B24 | 17.7 nM
42 | B25 | 1.32 nM
43 | B26 | 11.9 nM
44 | B27 | 5.77 nM
45 | B28 | 3.65 nM
46 | B29 | 3.55 nM
47 | B30 | 319 nM
48 | B31 | 46 nM
49 | B32 | 10.7 nM
50 | B33 | 13 nM
51 | B34 | 25 nM
52 | B35 | 5.13 nM
53 | B36 | 4.33 nM

molecular target: T2, extracellular domain of rhesus monkey …; assay: Octet BLI; Fab 200 nM; remark: another data set of the same source

Row | Binder | Kd
54 | B18 | 448 nM
55 | B19 | 216 nM
56 | B20 | 9.34 nM
57 | B21 | 57.3 nM
58 | B22 | 20.8 nM
59 | B23 | 196 nM
60 | B24 | 15.9 nM
61 | B25 | 7.72 nM
62 | B26 | 20.8 nM
63 | B27 | 16.9 nM
64 | B28 | 10.4 nM
65 | B29 | 14.9 nM
66 | B30 | 540 nM
67 | B31 | 50.4 nM
68 | B32 | 29.7 nM
69 | B33 | 18.4 nM
70 | B34 | 55.6 nM
71 | B35 | 18 nM
72 | B36 | 23.5 nM

Source: US20240327535A1 (EISAI R AND D MANAGEMENT, published 2024)
